Experimental data reported in PMC9486129, “An evolutionary divergent thermodynamic brake in ZAP-70 fine-tunes the kinetic proofreading in T cells” (The Journal of Biological Chemistry, 2022).

Legend:
[1] = molecular target: ZAP-70 tandem SH2 domain R192A (1-256); test: ITC; Malvern PEAQ-ITC, 20 °C; C-SH2 mutant tSH2 (R192A, printed R190A in the methods) in 20 mM Hepes pH 8.2, 150 mM NaCl, 5 mM β-mercaptoethanol; titrated with 300 μM peptide; one-site binding model; constant printed under the column Kd2
ZAP-70 tSH2 WT (1–256) [2] = test: other fluorescence titration; steady-state intrinsic tryptophan fluorescence, 25 °C; 0.5 μM tSH2 domain titrated with ITAM peptide; excitation 295 nm, emission 300-400 nm; Hill equation fit
ZAP-70 tSH2 WT (1–256) [3] = test: stopped-flow fluorescence; pre-steady-state tryptophan fluorescence, 10 °C; 100 nM tSH2 domain mixed with 30 μM ITAM peptide in 20 mM Tris pH 8.0, 150 mM NaCl, 5% glycerol, 5 mM β-mercaptoethanol; 1 s (fast) and 200 s (slow) transients; observed rates from one-site association fit
ZAP-70 tSH2 R39A [4] = test: other fluorescence titration; steady-state intrinsic tryptophan fluorescence, 25 °C; 0.5 μM tSH2 domain titrated with ITAM peptide; excitation 295 nm, emission 300-400 nm; Hill equation fit
ZAP-70 tSH2 R192A = test: stopped-flow fluorescence; pre-steady-state tryptophan fluorescence, 10 °C; 100 nM tSH2 domain mixed with 30 μM ITAM peptide in 20 mM Tris pH 8.0, 150 mM NaCl, 5% glycerol, 5 mM β-mercaptoethanol; 1 s (fast) and 200 s (slow) transients; observed rates from one-site association fit
ZAP-70 tSH2 R43P = test: as above
ZAP-70 tSH2 R39A [5] = test: as above
ZAP-70 tSH2 F117A = test: as above

Substance	Kd1 (ZAP-70 tSH2 WT (1–256) [2])	kobs fast (ZAP-70 tSH2 WT (1–256) [3])	kobs slow (ZAP-70 tSH2 WT (1–256) [3])	also measured
doubly-phosphorylated ITAM-ζ1 peptide with E13A				Kd [1]: 9.8 µM
doubly phosphorylated ITAM-ζ3 peptide (ITAM-Y2P-ζ3) (from UniProt P20963 131-159)	6.8 nM	21.4 s⁻¹	0.012 s⁻¹	
doubly phosphorylated ITAM-ζ1 peptide (ITAM-Y2P-ζ1) (from UniProt P20963 61-89)		23.9 s⁻¹	0.262 s⁻¹	Kd1 (ZAP-70 tSH2 R39A [4]): 8 nM; kobs slow (ZAP-70 tSH2 R192A): 0.006 s⁻¹; kobs fast (ZAP-70 tSH2 R43P): 28 s⁻¹; kobs slow (ZAP-70 tSH2 R43P): 2.25 s⁻¹; kobs fast (ZAP-70 tSH2 R39A [5]): 24.8 s⁻¹; kobs fast (ZAP-70 tSH2 F117A): 21.8 s⁻¹; kobs slow (ZAP-70 tSH2 F117A): 0.0517 s⁻¹

More lines, main results first:

Kd1 (ZAP-70 tSH2 WT (1–256) [2])	kobs fast (ZAP-70 tSH2 WT (1–256) [3])	kobs slow (ZAP-70 tSH2 WT (1–256) [3])	Substance	also measured
3.7 nM	28.6 s⁻¹		single phosphotyrosine ITAM-ζ1 peptide (ITAM-YP-ζ1) (from UniProt P20963 61-89)	
	24.4 s⁻¹	0.022 s⁻¹	ITAM-Y2P-ζ1 E13A (peptide)	
